Test results: article PMC8889352

Biological target: IL-12 receptor

18/12/TxM triple-cytokine fusion protein, sequence (Q13261 whole entry, looked up, the tested form may be a part): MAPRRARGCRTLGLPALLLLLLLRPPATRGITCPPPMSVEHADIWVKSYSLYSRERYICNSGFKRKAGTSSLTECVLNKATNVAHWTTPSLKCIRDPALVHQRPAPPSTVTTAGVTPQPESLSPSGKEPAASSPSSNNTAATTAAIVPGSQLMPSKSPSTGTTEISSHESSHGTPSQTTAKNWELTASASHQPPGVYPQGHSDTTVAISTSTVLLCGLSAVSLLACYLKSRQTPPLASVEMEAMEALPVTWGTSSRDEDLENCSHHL
18/12/TxM triple-cytokine fusion protein, sequence (P29459 whole entry, looked up, the tested form may be a part): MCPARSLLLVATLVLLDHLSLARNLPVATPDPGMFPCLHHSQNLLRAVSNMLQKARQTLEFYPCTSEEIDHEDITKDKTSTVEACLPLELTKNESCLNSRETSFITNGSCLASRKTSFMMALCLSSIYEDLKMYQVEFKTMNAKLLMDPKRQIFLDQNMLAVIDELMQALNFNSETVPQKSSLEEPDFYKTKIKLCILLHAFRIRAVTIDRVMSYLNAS
18/12/TxM triple-cytokine fusion protein, sequence (P29460 whole entry, looked up, the tested form may be a part): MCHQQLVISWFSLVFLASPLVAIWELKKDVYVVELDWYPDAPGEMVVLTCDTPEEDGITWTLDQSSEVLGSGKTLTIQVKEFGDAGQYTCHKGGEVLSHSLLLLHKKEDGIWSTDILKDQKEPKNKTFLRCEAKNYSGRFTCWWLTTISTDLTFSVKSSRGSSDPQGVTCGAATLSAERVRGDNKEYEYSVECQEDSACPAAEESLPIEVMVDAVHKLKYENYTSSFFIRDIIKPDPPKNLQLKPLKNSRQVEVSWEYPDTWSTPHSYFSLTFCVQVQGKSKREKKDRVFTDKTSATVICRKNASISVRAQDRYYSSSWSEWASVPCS
18/12/TxM triple-cytokine fusion protein, sequence (Q14116 whole entry, looked up, the tested form may be a part): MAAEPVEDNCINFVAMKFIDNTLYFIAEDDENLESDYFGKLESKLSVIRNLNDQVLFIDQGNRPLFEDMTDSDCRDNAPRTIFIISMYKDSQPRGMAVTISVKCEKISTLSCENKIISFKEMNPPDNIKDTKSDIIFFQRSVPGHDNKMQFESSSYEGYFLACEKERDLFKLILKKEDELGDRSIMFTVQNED

activation of IL-12 reporter HEK-Blue (HEK12) cells (STAT4-inducible SEAP), EC50: 0.0991 nM
Substance: 18/12/TxM triple-cytokine fusion protein (from UniProt Q14116 37-193; P29460 23-328; P29459 23-219; Q13261 31-95) (complex)
